In article PMC5829272:

Tests used:
[1] = GFAP/lectin immunofluorescence in cortex; details: glycan lost; control: wild type mice
[2] = cultured NSCs; details: glycan lost; control: wild type NSCs
[3] = transmission electron microscopy, retrosplenial granular cortex; details: glycan lost; control: wild type mice
[4] = immunofluorescence, retrosplenial granular cortex; details: glycan lost; control: wild type mice
[5] = cultured NSCs in vitro; details: glycan lost; control: wild type NSCs
[6] = spontaneous differentiation after EGF/bFGF withdrawal; details: glycan lost; control: wild type NSCs
[7] = RNA sequencing of NSCs; details: glycan lost; control: wild type NSCs
[8] = qPCR, Western blot, immunofluorescence; details: glycan lost; control: wild type
[9] = RNA sequencing of primary astrocyte cultures; details: glycan lost; control: wild type astrocytes
[10] = intraperitoneal Evans blue, leakage area in brain sections; details: glycan lost; control: wild type mice
[11] = DMP1 immunofluorescence intensity in brain; details: glycan lost; control: wild type mice

B1: Dentin matrix protein 1 (DMP1): S89G-DMP1 (protein)
parent chain: MKTVILLVFLWGLSCALPVARYHNTESESSEERTGDLAGSPPPPTNSESSEESQASPEGQANSDHTDSSESGEELGYDRGQYRPAGGLSKSTGTGADKEDDEDDSGDDTFGDEDNDLGPEEGQWGGPSKLDSDEDSTDTTQSSEDSTSQENSAQDTPSDSKDHDSEDEADSRPEAGDSTQDSESEEQRVGGGSEGESSHGDGSEFDDEGMQSDDPESTRSDRGHARMSSAGIRSEESKGDHEPTSTQDSDDSQSVEFSSRKSFRRSHVSEEDYRGELTDSNSRETQSDSTEDTASKEESRSESQEDTAESQSQEDSPEGQDPSSESSEEAGEPSQESSSESQEGVTSESRGDNPDNTSQAGDQEDSESSEEDSLNTFSSSESQSTEEQADSESNESLSLSEESQESAQDGDSSSQEGLQSQSASTESRSQESQSEQDSRSEEDSDSQDSSRSKEESNSTGSASSSEEDIRPKNMEADSRKLIVDAYHNKPIGDQDDNDCQDGY
[1]
  other: astrocyte end feet coverage of blood vessels: decreases
[2]
  other: neural stem cell apoptosis: no change
[3]
  other: astrocyte cell-cell adhesion: decreases
[4]
  other: laminin and ZO1 expression at vasculature: decreases
[5]
  other: neural stem cell proliferation: increases
[6]
  other: neural stem cell differentiation: no change
[7]
  other: neural stem cell transcriptome: changes
[8]
  other: AQP4 expression in astrocytes and brain: decreases
[9]
  other: astrocyte transcriptome: changes
[10]
  other: blood-brain barrier integrity: decreases
[11]
  expression_or_secretion: no change
